Data reported in paper PMC7340788, “Structure of the yeast Swi/Snf complex in a nucleosome free state” (Nature Communications, 2020).

T1: Swi3 (S. cerevisiae, UniProt P32591 1-825)
T1 construct: Swi3, subunit of the S. cerevisiae Swi/Snf complex; endogenous protein; two copies (chains A and B) in the model; also called Swi3A; Swi3B; source: endogenous, S. cerevisiae; purified as part of the Swi/Snf complex through Snf6-3Flag (ANTI-FLAG M2 resin, Superose 6)
T1 sequence (looked up): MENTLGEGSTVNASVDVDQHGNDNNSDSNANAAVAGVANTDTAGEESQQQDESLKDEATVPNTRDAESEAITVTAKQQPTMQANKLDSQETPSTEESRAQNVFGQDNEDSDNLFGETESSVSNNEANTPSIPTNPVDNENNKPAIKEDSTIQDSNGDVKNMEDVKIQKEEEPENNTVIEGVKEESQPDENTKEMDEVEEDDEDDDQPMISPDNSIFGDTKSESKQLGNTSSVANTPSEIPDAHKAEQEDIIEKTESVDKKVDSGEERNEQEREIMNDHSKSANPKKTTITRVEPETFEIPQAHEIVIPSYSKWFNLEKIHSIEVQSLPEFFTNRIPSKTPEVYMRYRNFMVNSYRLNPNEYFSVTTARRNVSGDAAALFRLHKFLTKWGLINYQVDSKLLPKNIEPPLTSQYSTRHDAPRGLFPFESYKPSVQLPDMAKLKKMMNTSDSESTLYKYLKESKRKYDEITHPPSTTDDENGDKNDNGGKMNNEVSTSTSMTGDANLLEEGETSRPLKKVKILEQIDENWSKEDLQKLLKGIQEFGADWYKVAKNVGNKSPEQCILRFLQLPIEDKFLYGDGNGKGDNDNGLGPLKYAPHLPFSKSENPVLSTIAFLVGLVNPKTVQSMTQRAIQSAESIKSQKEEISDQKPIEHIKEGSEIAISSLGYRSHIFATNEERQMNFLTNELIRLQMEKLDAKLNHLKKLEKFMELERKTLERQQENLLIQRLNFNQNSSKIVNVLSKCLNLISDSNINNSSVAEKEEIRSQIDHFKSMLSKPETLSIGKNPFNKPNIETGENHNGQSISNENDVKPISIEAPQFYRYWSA

B1: Snf12 (natural protein, S. cerevisiae, UniProt P53628 1-566, looked up)
chain: MSKVMKPSNGKGSRKSSKAATPDTKNFFHAKKKDPVNQDKANNASQITPTVPHSHPSDMVIPDHLAELIPELYSFQQLVDSEKRLDHFIHLRNLHMKRMVAQWERSKLSQEFLYPHLNFPNVKFLRIFISNVSENQPWQMDTNNEADLMALENATWTMRIEGRLLDNVQANDPAREKFSSFIESIVVDFKNKENDNVPSTKFNAAPEENATEGPSDKKLNLNLPLQFSLPNGDNSTTTNTDQNNATMGEETAKKDMSSTTPKLESVKWQYDPNNPVDFDGLDIKRVGSENVECTISILRKSSPEEPFMSYSPQLTAIIGLKSGTSHDAIFSIYKYIHLNELLTNDESAFENLMGNRNNHNSNTSTSKMLDAASSQVSIVKLDTQLITLLPSSLKESSPDTMKLTDLLSLINSTHLLPLQPIEIDYTVRVDKASTYGELVLDIEVPDVNALKFNNTQRESQIGAAELNENARELEQIKPKIALQDKEITSVLSNLHESNKRYRFFKKISEDPVKALNECIASTSNALKVLSGDEGYNEDMVRRANFYKENEAMLRENIEVILSNGRM
notes: Snf12, subunit of the S. cerevisiae Swi/Snf complex; endogenous protein; Part of the SWIB domain was homology modelled; For cryo-EM the complex was cross-linked with 1 mM BS3; source: endogenous, S. cerevisiae; purified as part of the Swi/Snf complex through Snf6-3Flag (ANTI-FLAG M2 resin, Superose 6)
B2: Swi1 (natural protein, S. cerevisiae, UniProt P09547 1-1314, looked up)
chain: MDFFNLNNNNNNNNTTTTTTTTNNNNTNNNNTNNNNNPANNTNNNNSTGHSSNTNNNTNNNNTNTGASGVDDFQNFFDPKPFDQNLDSNNNNSNSNNNDNNNSNTVASSTNFTSPTAVVNNAAPANVTGGKAANFIQNQSPQFNSPYDSNNSNTNLNSLSPQAILAKNSIIDSSNLPLQAQQQLYGGNNNNNSTGIANDNVITPHFITNVQSISQNSSSSTPNTNSNSTPNANQQFLPFNNSASNNGNLTSNQLISNYAASNSMDRSSSASNEFVPNTSDNNNNSNNHNMRNNSNNKTSNNNNVTAVPAATPANTNNSTSNANTVFSERAAMFAALQQKQQQRFQALQQQQQQQQNQQQQNQQPQQQQQQQQNPKFLQSQRQQQQRSILQSLNPALQEKISTELNNKQYELFMKSLIENCKKRNMPLQSIPEIGNRKINLFYLYMLVQKFGGADQVTRTQQWSMVAQRLQISDYQQLESIYFRILLPYERHMISQEGIKETQAKRIFLQQFLQELLKKVQQQQQAAALANANNNINSASSAPTPAAPGASVPATAAPGTEAGIVPVSANTPKSLNSNININVNNNNIGQQQVKKPRKQRVKKKTKKELELERKEREDFQKRQQKLLEDQQRQQKLLLETKLRQQYEIELKKLPKVYKRSIVRNYKPLINRLKHYNGYDINYISKIGEKIDSNKPIFLFAPELGAINLHALSMSLQSKNLGEINTALNTLLVTSADSNLKISLVKYPELLDSLAILGMNLLSNLSQNVVPYHRNTSDYYYEDAGSNQYYVTQHDKMVDKIFEKVNNNATLTPNDSNDEKVTILVDSLTGNQLPTPTPTEMEPDLDTECFISMQSTSPAVKQWDLLPEPIRFLPNQFPLKIHRTPYLTSLKKIKDEIDDPFTKINTRGAEDPKVLINDQLSTISMILRNISFSDNNSRIMSRNFYLKRFISDLLWLVLIHPENFTCNRKILNFKKDLVIVLSNISHLLEIASSIDCLLILILVISFGQPKLNPMASSSSFGSESLTFNEFQLQWGKYQTFGVDILAKLFSLEKPNLNYFKSILLNKNTGNNLYDRNSNNNHKDKKLLRRLLNLYNDNNKNNNNRHNLLNDVVSFLFSAIPLQQVLSQSADPSLLIDQFSPVISQSLTSILVIVQKILPLSNEVFEISENNSDSNSNNNGNKDSSFNFNKNLPFVWLSSEENIGSGLLKLSEIILNINNSTSKNTLLQQQNYSKVLLPSINISCVQLIKCLVEKSICFENCLNNDPEILKKIASIPNLFPTDLEIFQLFTNPSVDIQIINQYQLLYNLKNDILTNLE
notes: Swi1, subunit of the S. cerevisiae Swi/Snf complex; endogenous protein; Only part of the chain is modelled (C-terminus with seven ARM repeats, α1, β1); For cryo-EM the complex was cross-linked with 1 mM BS3; source: endogenous, S. cerevisiae; purified as part of the Swi/Snf complex through Snf6-3Flag (ANTI-FLAG M2 resin, Superose 6)
B3: Snf6 with a C-terminal 3-Flag tag (natural protein, S. cerevisiae, UniProt P18888 1-332, looked up)
chain: MGVIKKKRSHHGKASRQQYYSGVQVGGVGSMGAINNNIPSLTSFAEENNYQYGYSGSSAGMNGRSLTYAQQQLNKQRQDFERVRLRPEQLSNIIHDESDTISFRSNLLKNFISSNDAFNMLSLTTVPCDRIEKSRLFSEKTIRYLMQKQHEMKTQAAELQEKPLTPLKYTKLIAAAEDGSRSTKDMIDAVFEQDSHLRYQPDGVVVHRDDPALVGKLRGDLREAPADYWTHAYRDVLAQYHEAKERIRQKEVTAGEAQDEASLQQQQQQDLQQQQQVVTTVASQSPHATATEKEPVPAVVDDPLENMFGDYSNEPFNTNFDDEFGDLDAVFF
notes: Snf6, subunit of the S. cerevisiae Swi/Snf complex; expressed from its own locus; Bait of the purification; For cryo-EM the complex was cross-linked with 1 mM BS3; source: endogenous locus tagged by homologous recombination, S. cerevisiae; purified (ANTI-FLAG M2 resin, FLAG peptide elution, Superose 6); not shown: 3-Flag, C-terminal, kept
B4: Snf5 (natural protein, S. cerevisiae, UniProt P18480 1-905, looked up)
chain: MNNQPQGTNSVPNSIGNIFSNIGTPSFNMAQIPQQLYQSLTPQQLQMIQQRHQQLLRSRLQQQQQQQQQTSPPPQTHQSPPPPPQQSQPIANQSATSTPPPPPAPHNLHPQIGQVPLAPAPINLPPQIAQLPLATQQQVLNKLRQQAIAKNNPQVVNAITVAQQQVQRQIEQQKGQQTAQTQLEQQRQLLVQQQQQQQLRNQIQRQQQQQFRHHVQIQQQQQKQQQQQQQHQQQQQQQQQQQQQQQQQQQQQQQQQQQQQQQQQQQQQGQIPQSQQVPQVRSMSGQPPTNVQPTIGQLPQLPKLNLPKYQTIQYDPPETKLPYPTYWSDKKADTDTLLYEQIIQRDKINKYSLIRETNGYDPFSIYGFSNKEYISRLWHTLKYYQDLKNTRMKSITSTSQKIPSASIWGNGYSGYGNGITNTTTRVIPQVEVGNRKHYLEDKLKVYKQAMNETSEQLVPIRLEFDQDRDRFFLRDTLLWNKNDKLIKIEDFVDDMLRDYRFEDATREQHIDTICQSIQEQIQEFQGNPYIELNQDRLGGDDLRIRIKLDIVVGQNQLIDQFEWDISNSDNCPEEFAESMCQELELPGEFVTAIAHSIREQVHMYHKSLALLGYNFDGSAIEDDDIRSRMLPTITLDDVYRPAAESKIFTPNLLQISAAELERLDKDKDRDTRRKRRQGRSNRRGMLALSGTSASNTSMNGVHNTVAAGNASSLPPGEILLPDIADIPRTFRTPVPSTLMPGGVDVGPSVESYELRNTTTYKSRPDRPKPVSPPCYIIDHIPGHSLLLSIKLPGKVNTKEEFAAAPNDTSSGTNAMLPSPESLKTKLNSNIRAGVTIPSIPNPIANHTVTNSPNPTLQPVIPGGAASKSVPTPSLPIAPPVAPHDSEATLLTNSNNGSSNNNTQNT
notes: Snf5, subunit of the S. cerevisiae Swi/Snf complex; endogenous protein; For cryo-EM the complex was cross-linked with 1 mM BS3; source: endogenous, S. cerevisiae; purified as part of the Swi/Snf complex through Snf6-3Flag (ANTI-FLAG M2 resin, Superose 6)

Legend:
Assay in all cases: cryo-EM structure; endogenous Swi/Snf complex purified as a whole through Snf6-3Flag, nucleosome-free, cross-linked with 1 mM BS3, 20 mM HEPES pH 7.4, 350 mM NaCl; 4.1 Å average, 2.9 Å for the base module
Conditions in all cases: both partners purified
Snf2 = biological target: T2, Snf2 (S. cerevisiae, UniProt P22082 1-1703)
T2 construct: Snf2, ATPase-containing subunit of the S. cerevisiae Swi/Snf complex; endogenous protein; Only the preHSA domain and the HSA helix are seen in the map; the ATPase domain is absent from the structure; For cryo-EM the complex was cross-linked with 1 mM BS3; source: endogenous, S. cerevisiae; purified as part of the Swi/Snf complex through Snf6-3Flag (ANTI-FLAG M2 resin, Superose 6)

Swi1 = biological target: B2
Swi3 = biological target: T1, Swi3

T2 sequence (P22082 whole entry, the tested form may be a part): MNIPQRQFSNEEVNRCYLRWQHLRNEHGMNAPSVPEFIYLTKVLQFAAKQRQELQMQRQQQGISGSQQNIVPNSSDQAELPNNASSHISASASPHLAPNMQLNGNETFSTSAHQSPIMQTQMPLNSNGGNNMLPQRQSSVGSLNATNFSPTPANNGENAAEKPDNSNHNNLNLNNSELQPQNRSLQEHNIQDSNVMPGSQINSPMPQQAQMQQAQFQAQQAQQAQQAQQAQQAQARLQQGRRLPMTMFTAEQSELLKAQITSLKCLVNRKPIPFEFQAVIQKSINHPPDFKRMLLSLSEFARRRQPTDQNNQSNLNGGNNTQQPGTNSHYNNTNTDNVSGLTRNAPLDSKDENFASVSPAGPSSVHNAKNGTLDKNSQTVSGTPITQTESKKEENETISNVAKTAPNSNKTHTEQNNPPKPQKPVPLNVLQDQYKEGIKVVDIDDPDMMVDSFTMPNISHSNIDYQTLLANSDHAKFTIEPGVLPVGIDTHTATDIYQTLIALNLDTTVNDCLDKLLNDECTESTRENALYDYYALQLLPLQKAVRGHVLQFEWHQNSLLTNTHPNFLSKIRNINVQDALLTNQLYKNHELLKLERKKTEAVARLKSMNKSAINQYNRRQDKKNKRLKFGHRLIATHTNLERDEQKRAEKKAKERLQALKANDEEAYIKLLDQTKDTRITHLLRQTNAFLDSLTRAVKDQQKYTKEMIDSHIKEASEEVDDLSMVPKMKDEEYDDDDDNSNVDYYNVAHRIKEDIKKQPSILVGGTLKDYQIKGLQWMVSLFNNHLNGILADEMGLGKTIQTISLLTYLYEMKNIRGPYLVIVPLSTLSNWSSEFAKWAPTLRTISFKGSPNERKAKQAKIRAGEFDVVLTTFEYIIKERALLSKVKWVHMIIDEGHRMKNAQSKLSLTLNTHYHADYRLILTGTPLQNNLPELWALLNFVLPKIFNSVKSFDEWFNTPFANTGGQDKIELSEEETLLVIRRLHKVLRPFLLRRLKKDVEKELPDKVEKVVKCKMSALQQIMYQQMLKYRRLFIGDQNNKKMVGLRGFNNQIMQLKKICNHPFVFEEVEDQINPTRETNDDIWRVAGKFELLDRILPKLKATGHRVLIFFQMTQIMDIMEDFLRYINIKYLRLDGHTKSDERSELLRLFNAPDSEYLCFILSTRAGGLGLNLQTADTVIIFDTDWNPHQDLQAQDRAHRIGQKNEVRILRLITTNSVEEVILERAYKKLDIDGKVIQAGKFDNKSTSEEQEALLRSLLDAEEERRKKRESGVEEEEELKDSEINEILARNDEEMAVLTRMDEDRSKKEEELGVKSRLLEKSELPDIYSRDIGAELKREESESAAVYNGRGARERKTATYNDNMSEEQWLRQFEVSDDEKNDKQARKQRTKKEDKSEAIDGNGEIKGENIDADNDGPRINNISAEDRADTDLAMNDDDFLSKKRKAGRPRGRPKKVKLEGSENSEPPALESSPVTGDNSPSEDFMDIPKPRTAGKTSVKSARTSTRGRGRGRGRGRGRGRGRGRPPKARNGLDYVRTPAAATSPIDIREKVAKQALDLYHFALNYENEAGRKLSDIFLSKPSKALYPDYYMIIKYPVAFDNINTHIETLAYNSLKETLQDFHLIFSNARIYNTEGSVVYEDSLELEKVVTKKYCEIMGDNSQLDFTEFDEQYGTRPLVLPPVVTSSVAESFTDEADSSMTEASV

## B1
Snf2
  binding result: binds
Swi1
  binding result: binds
Swi3
  binding result: binds

## B2
Snf2
  binding result: binds

## B3
Snf2
  binding result: binds
Swi1
  binding result: binds

## B4
Snf2
  binding result: binds
Swi1
  binding result: binds
